Target: GST-GSK3β fusion protein (human, UniProt P49841 1-420)
Experiment: co-IP

Chain of GST-GSK3β fusion protein (P49841 whole entry, the tested form may be a part): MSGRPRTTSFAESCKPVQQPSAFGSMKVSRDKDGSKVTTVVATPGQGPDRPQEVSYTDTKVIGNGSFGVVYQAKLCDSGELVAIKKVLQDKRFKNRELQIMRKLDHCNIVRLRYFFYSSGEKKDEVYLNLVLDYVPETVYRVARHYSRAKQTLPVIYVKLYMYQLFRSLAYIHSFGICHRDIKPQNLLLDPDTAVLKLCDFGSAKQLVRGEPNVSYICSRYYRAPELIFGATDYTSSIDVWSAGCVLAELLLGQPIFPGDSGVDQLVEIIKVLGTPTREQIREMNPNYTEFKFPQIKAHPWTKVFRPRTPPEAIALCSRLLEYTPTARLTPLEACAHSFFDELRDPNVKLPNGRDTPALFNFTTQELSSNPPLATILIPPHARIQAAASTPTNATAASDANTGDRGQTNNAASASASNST

B1: GST-FANCL fusion protein (natural protein, human, UniProt Q9NW38 1-375, looked up)
chain: MAVTEASLLRQCPLLLPQNRSKTVYEGFISAQGRDFHLRIVLPEDLQLKNARLLCSWQLRTILSGYHRIVQQRMQHSPDLMSFMMELKMLLEVALKNRQELYALPPPPQFYSSLIEEIGTLGWDKLVYADTCFSTIKLKAEDASGREHLITLKLKAKYPAESPDYFVDFPVPFCASWTPQSSLISIYSQFLAAIESLKAFWDVMDEIDEKTWVLEPEKPPRSATARRIALGNNVSINIEVDPRHPTMLPECFFLGADHVVKPLGIKLSRNIHLWDPENSVLQNLKDVLEIDFPARAILEKSDFTMDCGICYAYQLDGTIPDQVCDNSQCGQPFHQICLYEWLRGLLTSRQSFNIIFGECPYCSKPITLKMSGRKH
- binding result: binds
